Laboratory results published in article PMC6156121 (Science Advances, 2018).

Molecular target: purified mTOR protein (Origene) (human, UniProt P42345 1-2549)
Assay: co-IP

B1: purified ETV7 protein (Origene) (natural protein)
chain: MQEGELAISPISPVAAMPPLGTHVQARCEAQINLLGEGGICKLPGRLRIQPALWSREDVLHWLRWAEQEYSLPCTAEHGFEMNGRALCILTKDDFRHRAPSSGDVLYELLQYIKTQRRALVCGPFFGGIFRLKTPTQHSPVPPEEVTGPSQMDTRRGHLLQPPDPGLTSNFGHLDDPGLARWTPGKEESLNLCHCAELGCRTQGVCSFPAMPQAPIDGRIADCRLLWDYVYQLLLDTRYEPYIKWEDKDAKIFRVVDPNGLARLWGNHKNRVNMTYEKMSRALRHYYKLNIIKKEPGQKLLFRFLKTPGKMVQDKHSHLEPLESQEQDRIEFKDKRPEISP
Q: Does B1 bind?
A: binds
